Measurements: paper PMC6311707

Target: NtermRGS2-GFP-CIBN (R2helix-CIBN component of opto-RGS2, GFP-tagged)
Test: light-induced membrane translocation

CRY2-mCherry-(GGGGS)3-RGS2box (CRY2-R2box component of opto-RGS2)
τoff (time constant of dark reversion from the membrane): 396 s
τon (time constant of light-induced membrane translocation): 19.7 s
